Test results: publication PMC7655986

Biological target: T1, recombinant Fc-construct of the Dsg2 extracellular domain, Q14126
T1 chain: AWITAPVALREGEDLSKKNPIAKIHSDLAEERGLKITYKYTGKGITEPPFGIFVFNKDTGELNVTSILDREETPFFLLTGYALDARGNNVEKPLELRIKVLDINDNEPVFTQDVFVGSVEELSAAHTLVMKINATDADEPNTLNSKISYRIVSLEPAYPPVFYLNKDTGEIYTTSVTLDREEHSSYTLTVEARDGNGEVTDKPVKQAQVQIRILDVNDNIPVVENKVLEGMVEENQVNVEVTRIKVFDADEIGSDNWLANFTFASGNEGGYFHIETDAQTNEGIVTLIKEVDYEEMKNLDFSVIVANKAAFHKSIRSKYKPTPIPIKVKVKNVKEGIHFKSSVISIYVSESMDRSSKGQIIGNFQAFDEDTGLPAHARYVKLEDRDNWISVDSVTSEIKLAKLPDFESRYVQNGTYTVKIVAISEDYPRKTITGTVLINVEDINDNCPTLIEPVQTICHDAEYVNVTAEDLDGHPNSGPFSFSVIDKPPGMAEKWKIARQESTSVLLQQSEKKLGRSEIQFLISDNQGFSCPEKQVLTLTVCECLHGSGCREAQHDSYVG
Test: atomic force microscopy (cell-free single-molecule force measurements); Dsg-Fc constructs (0.15 mg/ml) linked by a PEG linker to the cantilever tip and to mica sheets; Force Mapping mode; binding frequency and unbinding force; pulling speeds from 1 to 20 µm/s and modified Bells equation for the bond lifetime; 5 mM EGTA for 1 h lowered the binding frequency
Settings: remark: other sources report otherwise

bond lifetime: 0.12 s
B1: recombinant Fc-construct of the Dsg2 extracellular domain, Q14126 50-609 (Fc fusion)
chain: AWITAPVALREGEDLSKKNPIAKIHSDLAEERGLKITYKYTGKGITEPPFGIFVFNKDTGELNVTSILDREETPFFLLTGYALDARGNNVEKPLELRIKVLDINDNEPVFTQDVFVGSVEELSAAHTLVMKINATDADEPNTLNSKISYRIVSLEPAYPPVFYLNKDTGEIYTTSVTLDREEHSSYTLTVEARDGNGEVTDKPVKQAQVQIRILDVNDNIPVVENKVLEGMVEENQVNVEVTRIKVFDADEIGSDNWLANFTFASGNEGGYFHIETDAQTNEGIVTLIKEVDYEEMKNLDFSVIVANKAAFHKSIRSKYKPTPIPIKVKVKNVKEGIHFKSSVISIYVSESMDRSSKGQIIGNFQAFDEDTGLPAHARYVKLEDRDNWISVDSVTSEIKLAKLPDFESRYVQNGTYTVKIVAISEDYPRKTITGTVLINVEDINDNCPTLIEPVQTICHDAEYVNVTAEDLDGHPNSGPFSFSVIDKPPGMAEKWKIARQESTSVLLQQSEKKLGRSEIQFLISDNQGFSCPEKQVLTLTVCECLHGSGCREAQHDSYVG
